Measurements taken from patent US7534862.

Legend:
[1] = target: IL-6/sIL-6R complex (100 ng/ml IL-6 + 50 ng/ml sIL-6R) (UniProt P05231); experiment: cell-based or functional assay
[2] = target: hyper-IL-6 (H-IL-6), a fusion protein comprising IL-6+sIL-6R (UniProt P08887); experiment: cell-based or functional assay
Chain of hyper-IL-6 (H-IL-6), a fusion protein comprising IL-6+sIL-6R (P08887 20-323 limits assumed, chain 1 of 2): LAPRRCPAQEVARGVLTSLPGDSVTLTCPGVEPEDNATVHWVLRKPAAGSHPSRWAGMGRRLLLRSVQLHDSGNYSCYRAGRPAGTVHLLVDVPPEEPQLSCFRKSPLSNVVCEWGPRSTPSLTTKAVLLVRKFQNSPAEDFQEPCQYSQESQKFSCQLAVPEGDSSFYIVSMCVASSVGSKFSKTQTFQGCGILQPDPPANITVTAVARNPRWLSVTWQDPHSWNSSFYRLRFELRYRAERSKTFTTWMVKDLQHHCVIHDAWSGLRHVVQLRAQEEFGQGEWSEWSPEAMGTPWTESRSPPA
Chain of hyper-IL-6 (H-IL-6), a fusion protein comprising IL-6+sIL-6R (P05231 30-212 limits assumed, chain 2 of 2, further chain): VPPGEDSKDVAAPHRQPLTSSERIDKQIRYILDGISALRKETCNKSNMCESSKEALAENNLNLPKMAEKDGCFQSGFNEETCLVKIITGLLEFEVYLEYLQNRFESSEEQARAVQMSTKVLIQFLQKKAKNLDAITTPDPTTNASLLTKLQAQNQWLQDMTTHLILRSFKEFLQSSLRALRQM

Chain of IL-6/sIL-6R complex (100 ng/ml IL-6 + 50 ng/ml sIL-6R) (P05231 30-212 limits assumed, chain 1 of 2): as the sequence (P05231 30-212 limits assumed, chain 2 of 2, further chain) above
Chain of IL-6/sIL-6R complex (100 ng/ml IL-6 + 50 ng/ml sIL-6R) (P08887 20-358 limits assumed, chain 2 of 2, further chain): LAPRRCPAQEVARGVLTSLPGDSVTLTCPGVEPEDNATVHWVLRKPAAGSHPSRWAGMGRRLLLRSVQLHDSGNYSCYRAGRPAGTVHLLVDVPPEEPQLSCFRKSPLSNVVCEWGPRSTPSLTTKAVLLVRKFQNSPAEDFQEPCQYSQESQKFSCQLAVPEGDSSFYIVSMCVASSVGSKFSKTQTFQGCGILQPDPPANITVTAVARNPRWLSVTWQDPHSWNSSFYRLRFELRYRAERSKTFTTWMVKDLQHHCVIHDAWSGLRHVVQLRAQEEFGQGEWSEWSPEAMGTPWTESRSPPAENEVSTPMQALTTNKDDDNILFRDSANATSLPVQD

B1: sgp130PEG (PEGylated sgp130(D1-D3)-Pn dimer) (receptor, part only)
chain: MLTLQTWVVQALFIFLTTESTGELLDPCGYISPESPVVQLHSNFTAVCVLKEKCMDYFHVNANYIVWKTNHFTIPKEQYTIINRTASSVTFTDIASLNIQLTCNILTFGQLEQNVYGITIISGLPPEKPKNLSCIVNEGKKMRCEWDGGRETHLETNFTLKSEWATHKFADCKAKRDTPTSCTVDYSTVYFVNIEVWVEAENALGKVTSDHINFDPVYKVKPNPPHNLSVINSEELSSILKLTWTNPSIKSVIILKYNIQYRTKDASTWSQIPPEDTASTRSSFTVQDLKPFTEYVFRIRCMKEDGKGYWSDWSEEASGITYEDRP
modifications: C-terminal Pn cysteine peptide unsequenced; PEGylated; disulfide dimer
Question: With B1 as the binder, how does the factor of improvement over sgp130Fc in inhibition of BAF/gp130 proliferation (fold vs sgp130Fc) [1] read?
Answer: 1.5 to 3

Question: And the half-maximal [3H]-thymidine incorporation of BAF/gp130 cells (proliferation) [1]?
Answer: 1 to 5 ng/mL

Question: What about the STAT3 activity (relative luciferase activity, pSTAT3-TA-Luc reporter in BAF/gp130 cells) at 10 ug/ml inhibitor, 5 ng/ml H-IL-6 (% of activity with H-IL-6 alone) [2] of the same binder?
Answer: 18

Question: What about the concentration giving half-maximal activation of STAT3 (H-IL-6-induced, luciferase reporter in BAF/gp130 cells) [2] of the same binder?
Answer: 2.5 µg/mL

Question: And the efficiency relative to sgp130Fc in inhibition of H-IL-6-induced STAT3 activation (fold vs sgp130Fc) [2]?
Answer: 2 to 3

Question: And the factor of improvement over sgp130Fc in inhibition of BAF/gp130 proliferation (fold vs sgp130Fc) [2]?
Answer: 1.5 to 3

Question: What about the half-maximal [3H]-thymidine incorporation of BAF/gp130 cells (proliferation) [2] of the same binder?
Answer: 1 to 5 ng/mL
